Columns and labels:
[1] = molecular target: SARS-CoV-2突变株B.1.617.2株假病毒 (刺突蛋白) (SARS-CoV-2); assay: cell-based or functional assay
[2] = molecular target: SARS-CoV-2突变株B.1.1.529株假病毒 (刺突蛋白) (SARS-CoV-2); assay: cell-based or functional assay

B1: 单克隆抗体9D4 (antibody, V domains shown)
VH: QVHLQQSGPELVKPGASVKISCKSSGYALTDYYINWVKQRPGQGLEWIGWIFPGNDYTYFNEKFKDKATLTLDKSSRTAYMLLSSLTTEDSAVYFCARYGDGNYVYFDYWGQGTSLTVSS
VL: ETVLIQSPALMAASPGEKVTITCSVSSSISSSNLHWYQQKSGNSPKPWIYGTSNLASGVPVRFSGSGSGTSYSLTISSMEAEDAATYYCQQWSSYPLTFGAGTKLELK
- 假病毒中和活性IC50 [1]: 155 ng/mL
- 假病毒中和活性IC50 [2]: 188 ng/mL

B2: 单克隆抗体8H9 (antibody, V domains shown)
VH: QIQLVQSGPELKKPGETVKISCKASGYTFTTYGMSWVKQTPGKGLKWMGWINTYSGVPTYADDFKGRFAFSLETSASTASLQINNLKNEDTATYFCARYDPTAPDYAMDYWGQGTSVTVSS
VL: NIVMTQSPKSMSMSVGERVTLSCKASENVGTYVSWYQQKPEQSPKLLIYGASNRYTGVPDRFTGSGSATDFTLTISSVQAEDLADYHCGQSYIYPLTFGAGTNLELK
- 假病毒中和活性IC50 [1]: 56.6 ng/mL
- 假病毒中和活性IC50 [2]: 92.9 ng/mL

From CN114790240A (UNIV ZHENGZHOU; UNIV HENAN AGRICULTURAL, dated 2022)
